In US12624075B2, “Immune inducer” (TORAY INDUSTRIES, INC., priority 2015, dated 2026) one finds cytotoxic activity data, which are given here for one molecule.

The test system of the data set is U251 cells. Briefly: Cytotoxicity assay (chromium 51 release) of induced HLA-A0201-positive CD8-positive T cells against U251 cells. The data set is classed as cell-based, human. The following applies: 5×10^4 T cells with 1×10^3 U251 cells, 4 hours; FIG. 4A; higher/lower = SEQ ID NOs: 3 to 19 versus SEQ ID NOs: 75 to 83 and full-length PDS5A protein. The text has this: Subsequently, the following were examined: whether or not the polypeptides having the amino acid sequences represented by SEQ ID NOs: 3 to 19, which are used in the present invention, are presented on the HLA-A0201 molecules on tumor cells which are HLA-A0201-positive and which express human PDS5A protein; whether or not the CD8-positive T cells stimulated with the polypeptides according to the present invention can damage the tumor cells which are HLA-A0201-positive and which express the human PDS5A protein; and further, whether or not the above described CD8-positive T cells have a markedly higher ability to damage the tumor cells as compared to the CD8-positive T cells stimulated with the known peptides (SEQ ID NOs: 75 to 83) and those stimulated with the PDS5A protein.
Each of the total 10 types of cell lines whose expression of human PDS5A protein has been confirmed, namely: a human glioma (malignant brain tumor) cell line U251 cells; a leukemia cell line Jurkat cells; a liver cancer cell line SK-Hep1; a breast cancer cell line MCF7; a pancreatic cancer cell line Panc1; an ovarian cancer cell line OVCAR3; a renal cancer cell line A498; a colorectal cancer cell line HCT116; a stomach cancer cell line KATO3; and a lung cancer cell line NCI-H522 (purchased from ATCC); were collected into a 50 mL centrifugal tube, in an amount of 1×10^6 cells each. […]

B1: full-length PDS5A protein: human PDS5A protein of 1337 amino acid residues, prepared according to Example 5 in WO 2011/027807; Comparative Example (protein, listed as Homo sapiens)
chain: MDFTAQPKPATALCGVVSADGKIAYPPGVKEITDKITTDEMIKRLKMVVKTFMDMDQDSEDEKQQYLPLALHLASEFFLRNPNKDVRLLVACCLADIFRIYAPEAPYTSHDKLKDIFLFITRQLKGLEDTKSPQFNRYFYLLENLAWVKSYNICFELEDCNEIFIQLFRTLFSVINNSHNKKVQMHMLDLMSSIIMEGDGVTQELLDSILINLIPAHKNLNKQSFDLAKVLLKRTVQTIEACIANFFNQVLVLGRSSVSDLSEHVFDLIQELFAIDPHLLLSVMPQLEFKLKSNDGEERLAVVRLLAKLFGSKDSDLATQNRPLWQCFLGRFNDIHVPVRLESVKFASHCLMNHPDLAKDLTEYLKVRSHDPEEAIRHDVIVTIITAAKRDLALVNDQLLGFVRERTLDKRWRVRKEAMMGLAQLYKKYCLHGEAGKEAAEKVSWIKDKLLHIYYQNSIDDKLLVEKIFAQYLVPHNLETEERMKCLYYLYASLDPNAVKALNEMWKCQNMLRSHVRELLDLHKQPTSEANCSAMFGKLMTIAKNLPDPGKAQDFVKKFNQVLGDDEKLRSQLELLISPTCSCKQADICVREIARKLANPKQPTNPFLEMVKFLLERIAPVHIDSEAISALVKLMNKSIEGTADDEEEGVSPDTAIRSGLELLKVLSFTHPTSFHSAETYESLLQCLRMEDDKVAEAAIQIFRNTGHKIETDLPQIRSTLIPILHQKAKRGTPHQAKQAVHCIHAIFTNKEVQLAQIFEPLSRSLNADVPEQLITPLVSLGHISMLAPDQFASPMKSVVANFIVKDLLMNDRSTGEKNGKLWSPDEEVSPEVLAKVQAIKLLVRWLLGMKNNQSKSANSTLRLLSAMLVSEGDLTEQKRISKSDMSRLRLAAGSAIMKLAQEPCYHEIITPEQFQLCALVINDECYQVRQIFAQKLHKALVKLLLPLEYMAIFALCAKDPVKERRAHARQCLLKNISIRREYIKQNPMATEKLLSLLPEYVVPYMIHLLAHDPDFTRSQDVDQLRDIKECLWFMLEVLMTKNENNSHAFMKKMAENIKLTRDAQSPDESKTNEKLYTVCDVALCVINSKSALCNADSPKDPVLPMKFFTQPEKDFCNDKSYISEETRVLLLTGKPKPAGVLGAVNKPLSATGRKPYVRSTGTETGSNINVNSELNPSTGNRSREQSSEAAETGVSENEENPVRIISVTPVKNIDPVKNKEINSDQATQGNISSDRGKKRTVTAAGAENIQQKTDEKVDESGPPAPSKPRRGRRPKSESQGNATKNDDLNKPINKGRKRAAVGQESPGGLEAGNAKAPKLQDLAKKAAPAERQIDLQR
For B1, the cytotoxic activity result is reported as “markedly lower cytotoxic activity”.
